Assay results: the DeepSol protein solubility set

experiment: soluble on expression in E. coli; label from the status in PepcDB or PDB records

| Sequence | soluble on expression in E. coli |
| --- | --- |
| MNKILIAAASSGAGKTTVTLGIMQALKKRGFAVQPFKVGPDYIDTNYHQAITGVASINLDSFLIDDDEMLASLFQKHGESADISVIEGVMGLFDGLGTDRDNASTSFIAKCTKTPVILVVDGKAISTSAAAIVDGFNRFDPELKIAGVIINRVASENHFSLIKGAIERYTDVPVLGYLPKNAAVALPERHLGLVPQEEMTELEAKWELLSDLITTHVDLDKLLEISKSSENLSTSKAQMKVADFSGLRVAYALDAAFHFYYQDNLDLIRLTGAELIPFSPLEDNEVPEADFIYIGGGFPEIFAKQLNDNRSMRKSILAAHEKGIPIYAECGGLMYLGSSLEMEGKQYEMVGVFNGISKMTTRLRKFGYCIAEPLEETLIGKKGMSIRGHEFHHSVFETTETACMKLSKKRDGEIVKEWRGGYQKGNTFASYLHIHFYQNPAILMQMFGAGKRLEHHHHHH | soluble |
| MGSDKIHHHHHHMKDINMTVEKGQVAGILGITGCGKTTLLKLLYNGLKNGDRRLIWKGGNYVDAIGRARPNAVYVPQSAPDSLDPVYSVIDQIRKVMQARSVDFDQDLLEKIMSEIGRSPDMLKKKPQALSQGERHIAVVIMALMIRPSLIMMDEPTTSLDAIETLDLLGIIRRFSVQYGISFIISGTSPEVITYASDFVHVMYCGTFVESSQTEDLISNPLHPYTRMIMKMRPSIRTKDLVLDRFIYDCNDYGCPFLNYCEYARDECRSQVSIRRYNDRAGQVRSLAEIMLSAKHVYKTYLEKVSIFKWHENKVIEDFSYDFLSGTRYGIIGVSGSGKTTLASILAGYDRPDSGSIIYSKHPSDGSSIRVRNVFQDTYRFLNPVNTLEWYEKNISAISPDPKLIDKILDAVGLPLERFGSLYIDQLSGGQRQRLAFAMVLSQLPDVLILDEPFSMIDPPNAMVLFSLIRKYLDKSTVIYIDHNIDRVAYLCDHIIAFDKGRIVEEDDVKKIFETQKTEYVEKLIWASEKISSRMKRQP | not soluble |
| MGSDKIHHHHHHMTSKIDGLSVSSGLHRRYWNGMVADLWSVDCQSDAGGQYVSSDPRLFILLDAAGEDGADLSMAEGGGKRISGAMARAAHFIPAGLELSTAITGVKSLRHLDLHFDADILRHRLGEDAGLAALHQPRYLLDDPRLLALAELIAADVANPHPLHDLYGDGLVSALLIDVLNIRPTPTHQLPNRKRSKLAAWQLRRVCDFIEAHCLRTIRLEELAGLAGLSPTYFSHAFKASTGLSPHQWQMKARIETVKQRLRDPAVPLTVIAAETGFADAAHFARSFRRAVGLSPSEWRRVRLN | not soluble |
| MLLENGWIVGVKQVLSPHFDLRPEGEMPSLLVIHSISLPPSEFGGPYIDQLFTGTLNADEHPYFASIVHLRVSAHCLIRRDGEIIQYVPFDKRAWHAGVSVFAGRERCNDFSIGIELEGTDVLPFTPVQYQRLTEISAVLFAHYPITVERVAGHSEIAPGRKTDPGLAFDWFFYQQNLAKLLV | not soluble |
| PVTETVDGQGQAWRHHNGFDFAVIKELKTAASQYGATAPYTLAIVESVADNWLTPTDWNTLVRAVLSGGDHLLWKSEFFENCRDTAKRNQQAGNGWDFDMLTGSGNYSSTDAQMQYDPGLFAQIQAAATKAWRKLPVKGD | soluble |
| MISAKEQAKKGQIIYRYILLKIQSFKWPAGTRIFSERQLEIRFASSRSLIRTILNTLLGKDLIRHTKGNAGYFVAKNAGFSFFHKTQDNKLPKWAKLSTLMKNHLREVDRDVFSSIDSGVDFGNFKGLEAKLFDENKKNFLNLSFFGKDDVLQIFSEQNLQEQFFKDFAYNGIVVERKSSLICVDDETKNLLIYDLFYDDNNKFIVAMRSEYLNPRIKIINA | soluble |
| SDIEHILTAIAVLLEKRLDYDRGVIMMADAGGSALRVLASYGFDEAGRRVMHETPIALDGVGPRGVVAASFLDQKPFLVNDLDEINHLIPPLHRELGRRLGIRSFISCPIVCEGQSLGVLAVDTIRTG | not soluble |
| SLSSPLLPAPVCNPNKAIFTVDAKTTEILVANDKACGLLGYSSQDLIGQKLTQFFLRSDSDVVEALSEEHMEADGHAAVVFGTVVDIISRSGEKIPVSVWMKRMRQERRLCCVVVLEPVER | soluble |
| MGHHHHHHSHPRPEQHKSYKIRFNSISCSDPLVSSWRRKRKESSNTDSAGALGTLRFCVFGLGSRAYPHFCAFARAVDTRLEELGGERLLQLGQGDELCGQEEAFRGWAQAAFQAACETFCVGEDAKAAARDIFSPKRSWKRQRYRLSAQAEGLQLLPGLIHVHRRKMFQATIRSVENLQSSKSTRATILVRLDTGGQEGLQYQPGDHIGVCPPNRPGLV | not soluble |
